# US20230265151A1, “GIP/GLP1 CO-AGONIST COMPOUNDS” (priority 2020, published 2023)
# Positions count from the first letter of the chain named. *1 amine or outer side, *2 acyl side, *3 side chain or, on linkers, in order; H or OH if unused. Where no end group is shown, it is not given here. Side-chain parts run from the residue outwards. [ ]: non-standard residue; d: D form. The star is where a group is joined. Decanoyl(10-(4-HOOC-PhO)) = O=C(O)c1ccc(OCCCCCCCCCC(=O)*)cc1; αMePhe(2-F) = C[C@](N)(Cc1ccccc1F)C(=O)O; γGlu = O=C(O)[C@H](CCC(=O)[*:2])N[*:1]; C14 diacid = O=C(O)CCCCCCCCCCCCC(=O)*; αMeY = C[C@](N)(Cc1ccc(O)cc1)C(=O)O; αMeL = CC(C)C[C@](C)(N)C(=O)O; Orn = NCCC[C@H](N)C(=O)O; AEEA = NCCOCCOCC(=O)O; Aib = CC(C)(N)C(=O)O
# T1: human GIP receptor (human, UniProt P48546 22-466)
# T1 construct: whole, on cells; also called hGIPR; human glucose-dependent insulinotropic polypeptide receptor
# T1 sequence (looked up): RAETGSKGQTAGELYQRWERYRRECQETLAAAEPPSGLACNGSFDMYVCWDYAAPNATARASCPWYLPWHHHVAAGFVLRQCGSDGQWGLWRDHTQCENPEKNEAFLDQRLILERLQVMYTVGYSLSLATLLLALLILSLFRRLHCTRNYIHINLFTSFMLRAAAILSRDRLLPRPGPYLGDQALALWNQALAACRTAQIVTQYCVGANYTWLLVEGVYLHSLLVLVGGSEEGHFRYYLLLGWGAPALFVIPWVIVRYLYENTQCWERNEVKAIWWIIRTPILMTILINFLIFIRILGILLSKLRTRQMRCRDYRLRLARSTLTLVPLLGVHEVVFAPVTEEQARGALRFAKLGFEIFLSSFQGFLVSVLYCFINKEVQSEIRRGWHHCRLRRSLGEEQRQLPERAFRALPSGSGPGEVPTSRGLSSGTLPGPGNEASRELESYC
# B1: Y-Aib-EGT-αMeF(2F)-TSD-4Pal-SI-αMeL-LD-Orn-K((2-[2-(2-Amino-ethoxy)-ethoxy]-acetyl)2-(γ-Glu)-CO-(CH2)12-CH3)AQ-Aib-EFI-(D-Glu)-αMeY-LIEGGK((2-[2-(2-Amino-ethoxy … (peptide)
# peptide: YXEGTXTSDXSIXLDXKAQXEFIXXLIEGGKSSGAPPPS
# modifications: Aib2, αMeF(2F)6, 4Pal10, αMeL13, Orn16, K17(Z1), Aib20, D-Glu24, αMeY25, K31(Z1), C-term NH2; Z1=AEEA2-(γ-Glu)-CO-(CH2)12-CH3
# B2: Y-Aib-EGT-αMeF(2F)-TSD-4Pal-SI-αMeL-LD-Orn-K((2-[2-(2-Amino-ethoxy)-ethoxy]-acetyl)2-(10-(4-carboxyphenoxy)decanoyl))AQ-Aib-EFI-(D-Glu)-αMeY-LIEGGK((2-[2-(2-Ami … (peptide)
# peptide: B1 peptide
# modifications: Aib2, αMeF(2F)6, 4Pal10, αMeL13, Orn16, K17(Z1), Aib20, D-Glu24, αMeY25, K31(Z1), C-term NH2; Z1=AEEA2-(10-(4-carboxyphenoxy)decanoyl)
# B3: Y-Aib-EGT-αMeF(2F)-TSD-4Pal-SI-αMeL-LD-Orn-K((2-[2-(2-Amino-ethoxy)-ethoxy]-acetyl)-(γ-Glu)-CO-(CH2)12-CO2H)AQ-Aib-EFI-(D-Glu)-αMeY-LIEGGK((2-[2-(2-Amino-ethoxy … (peptide)
# peptide: B1 peptide
# modifications: Aib2, αMeF(2F)6, 4Pal10, αMeL13, Orn16, K17(Z1), Aib20, D-Glu24, αMeY25, K31(Z1), C-term NH2; Z1=AEEA-(γ-Glu)-CO-(CH2)12-CO2H
# B4: Y-Aib-EGT-αMeF(2F)-TSDV-Aib-I-αMeL-LD-Orn … (peptide)
# peptide: Y[Aib]EGT[αMePhe(2-F)]TSDV[Aib]I[αMeL]LD[Orn]QAQ[Aib][Orn]FIK([AEEA-AEEA-γGlu-C14 diacid])[αMeY]LIK([AEEA-AEEA-γGlu-C14 diacid])GGPSSGAPPPS-NH2
# modifications: N-terminus assumed
# SMILES: CC[C@H](C)[C@H](NC(=O)[C@H](CC(C)C)NC(=O)[C@](C)(Cc1ccc(O)cc1)NC(=O)[C@H](CCCCNC(=O)COCCOCCNC(=O)COCCOCCNC(=O)CC[C@H](NC(=O)CCCCCCCCCCCCC(=O)O)C(=O)O)NC(=O)[C@@H](NC(=O)[C@H](Cc1ccccc1)NC(=O)[C@H](CCCN)NC(=O)C(C)(C)NC(=O)[C@H](CCC(N)=O)NC(=O)[C@H](C)NC(=O)[C@H](CCC(N)=O)NC(=O)[C@H](CCCN)NC(=O)[C@H](CC(=O)O)NC(=O)[C@H](CC(C)C)NC(=O)[C@](C)(CC(C)C)NC(=O)[C@@H](NC(=O)C(C)(C)NC(=O)[C@@H](NC(=O)[C@H](CC(=O)O)NC(=O)[C@H](CO)NC(=O)[C@@H](NC(=O)[C@](C)(Cc1ccccc1F)NC(=O)[C@@H](NC(=O)CNC(=O)[C@H](CCC(=O)O)NC(=O)C(C)(C)NC(=O)[C@@H](N)Cc1ccc(O)cc1)[C@@H](C)O)[C@@H](C)O)C(C)C)[C@@H](C)CC)[C@@H](C)CC)C(=O)N[C@@H](CCCCNC(=O)COCCOCCNC(=O)COCCOCCNC(=O)CC[C@H](NC(=O)CCCCCCCCCCCCC(=O)O)C(=O)O)C(=O)NCC(=O)NCC(=O)N1CCC[C@H]1C(=O)N[C@@H](CO)C(=O)N[C@@H](CO)C(=O)NCC(=O)N[C@@H](C)C(=O)N1CCC[C@H]1C(=O)N1CCC[C@H]1C(=O)N1CCC[C@H]1C(=O)N[C@@H](CO)C(N)=O
# B5: Y-Aib-EGT-αMeF(2F)-TSDY-Aib-I-αMeL-LD-Orn-IAQ-Aib-Orn-FIK((2-[2-(2-Amino-ethoxy)-ethoxy]-acetyl)3-(γ-Glu)-CO-(CH2)12-CO2H)-αMeY-LIK((2-[2-(2-Amino-ethoxy)-ethox … (peptide)
# peptide: YXEGTXTSDYXIXLDXIAQXXFIKXLIKGGPSSGAPPPS
# modifications: Aib2, αMeF(2F)6, Aib11, αMeL13, Orn16, Aib20, Orn21, K24(Z1), αMeY25, K28(Z1), C-term NH2; Z1=AEEA3-(γ-Glu)-CO-(CH2)12-CO2H
# B6: Y-Aib-EGT-αMeF(2F)-TSDY-Aib-I-αMeL-LD-Orn-IAQ-Aib-Orn-FIK((2-[2-(2-Amino-ethoxy)-ethoxy]-acetyl)3-(γ-Glu)--(10-(4-carboxyphenoxy)decanoyl))-αMeY-LIK((2-[2-(2-Am … (peptide)
# peptide: B5 peptide
# modifications: Aib2, αMeF(2F)6, Aib11, αMeL13, Orn16, Aib20, Orn21, K24(Z1), αMeY25, K28(Z1), C-term NH2; Z1=AEEA3-(γ-Glu)-(10-(4-carboxyphenoxy)decanoyl)
# B7: Y-Aib-EGT-αMeF(2F)-TSD-4Pal-Aib-I-αMeL-LD-Orn-QAQ-Aib-Orn-FIK((2-[2-(2-Amino-ethoxy)-ethoxy]-acetyl)2-(γ-Glu)-(11-(4-carboxyphenoxy)undecanoyl)-αMeY-LIK((2-[2-( … (peptide)
# peptide: B5 peptide with Y10X, I17Q
# modifications: Aib2, αMeF(2F)6, 4Pal10, Aib11, αMeL13, Orn16, Aib20, Orn21, K24(Z1), αMeY25, K28(Z1), C-term NH2; Z1=AEEA2-(γ-Glu)-(11-(4-carboxyphenoxy)undecanoyl)
# Target: T1, human GIP receptor
# Test: SPA competition vs [125I]-GIP, hGIPR membranes
row,Binder,Ki
1,B1,0.024 nM
2,B2,0.0489 nM
3,B3,0.0508 nM
4,Y[Aib]EGT[αMePhe(2-F)]TSDV[Aib]I[αMeL]LD[Orn]QAQ[Aib]EFIK([AEEA-AEEA-γGlu-Decanoyl(10-(4-HOOC-PhO))])[αMeY]LIK([AEEA-AEEA-γGlu-Decanoyl(10-(4-HOOC-PhO))])GGPSSGAPPPS-NH2,0.0369 nM
5,B4,0.0314 nM
6,B5,0.0406 nM
7,B6,0.0266 nM
8,B7,0.0507 nM

# Target: T2, human glucagon receptor (human, UniProt P47871 26-477)
# T2 construct: whole, on cells; also called hGCGR; hGcgR
# Test: SPA competition vs [125I]-Gcg, hGcgR membranes
# T2 sequence (P47871 26-477): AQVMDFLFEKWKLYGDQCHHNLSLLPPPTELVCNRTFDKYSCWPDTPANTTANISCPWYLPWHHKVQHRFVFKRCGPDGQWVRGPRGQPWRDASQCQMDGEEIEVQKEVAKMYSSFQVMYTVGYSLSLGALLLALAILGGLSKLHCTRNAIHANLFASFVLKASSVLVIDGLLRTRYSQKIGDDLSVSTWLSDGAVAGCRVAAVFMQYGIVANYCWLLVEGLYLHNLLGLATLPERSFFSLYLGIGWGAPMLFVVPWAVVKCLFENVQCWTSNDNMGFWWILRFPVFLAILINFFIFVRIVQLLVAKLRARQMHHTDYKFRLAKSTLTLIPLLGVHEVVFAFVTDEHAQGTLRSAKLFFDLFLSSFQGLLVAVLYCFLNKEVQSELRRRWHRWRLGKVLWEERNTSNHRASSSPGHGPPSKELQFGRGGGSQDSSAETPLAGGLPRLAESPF
row,Binder,Ki
1,B1,4.29 nM
2,B2,424 nM
3,B3,660 nM
4,Y[Aib]EGT[αMePhe(2-F)]TSDV[Aib]I[αMeL]LD[Orn]QAQ[Aib]EFIK([AEEA-AEEA-γGlu-Decanoyl(10-(4-HOOC-PhO))])[αMeY]LIK([AEEA-AEEA-γGlu-Decanoyl(10-(4-HOOC-PhO))])GGPSSGAPPPS-NH2,109 nM
5,B4,116 nM
6,B5,49.7 nM
7,B6,20.1 nM
8,B7,130 nM

# Target: T3, human GLP-1 receptor (human, UniProt P43220 24-463)
# T3 construct: whole, on cells; also called hGLP-1R; human glucagon-like peptide-1 receptor
# Test: SPA competition vs [125I]-GLP-1, hGLP-1R membranes
# Summary of the method: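 Kᵢ values are geometric means (SEM) over replicates run on separate days, derived from IC₅₀ of four-parameter curve fits. Buffer: HEPES 25 mM pH 7.4 with CaCl₂ 2.5 mM, MgCl₂ 1 mM, bacitracin 0.1%, TWEEN-20 0.003%, EDTA-free protease inhibitors.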
row,Binder,Ki
1,B1,0.139 nM
2,B2,0.681 nM
3,B3,1.06 nM
4,Y[Aib]EGT[αMePhe(2-F)]TSDV[Aib]I[αMeL]LD[Orn]QAQ[Aib]EFIK([AEEA-AEEA-γGlu-Decanoyl(10-(4-HOOC-PhO))])[αMeY]LIK([AEEA-AEEA-γGlu-Decanoyl(10-(4-HOOC-PhO))])GGPSSGAPPPS-NH2,0.382 nM
5,B4,0.367 nM
6,B5,0.407 nM
7,B6,0.326 nM
8,B7,0.164 nM
